A short description of this data set: Ex vivo biodistribution of 225Ac-labeled variants in AR42J tumor-bearing mice. To be noted: athymic nu/nu, mouse, total radioactivity. Here is the method: Prior to conducting targeted alpha-particle therapy studies using three ^225Ac-labeled variants (Fig. S17) in AR42J xenograft-bearing mice, we first assessed their in vivo pharmacokinetics through ex vivo biodistribution studies at 24 h post-injection (Fig. 5A; Tables S4). […]
For studies involving three variants (DOTA -TATE, DOTA-MVK(ε)-TATE, and DOTA-β-Gal-TATE), AR42J cells (5 × 10^6 cells per mouse) were subcutaneously inoculated into the right shoulder of the mice. Tumors were allowed to grow for 3 weeks, reaching a volume of 100 –200 mm³ before being used in subsequent experiments. […]
All samples […]
were weighed and counted on a gamma counter (2480 Wizard 3, Perkin Elmer Inc., Waltham, MA, USA). Results are presented as percentage of injected activity per gram (%IA/g) and mean values ± standard deviations. […]
Prior to conducting alpha particle therapy, biodistribution studies with 225Ac-labeled DOTA - TATE variants (117 – 163 kBq, 1 μg) were performed at 24 hours and 4 days post -injection in athymic nu/nu mice bearing AR42J tumors (n = 4 – 5). Mice were euthanized by CO 2 asphyxiation, and 10 tissues, including tumors, were collected. All samples were weighed and counted on a gamma counter after equilibration for 12 hours. Results are presented as %IA/g and mean values ± standard deviations.

The mark [1] stands for this setting: iv, 1 ug, 225Ac-labeled, AR42J tumor-bearing mice, 24 h post-injection, ex vivo, mean (± SD), n = 4–5, read-out: Kidney uptake.
Setting [2] is: iv, 1 ug, 225Ac-labeled, AR42J tumor-bearing mice, 24 h post-injection, ex vivo, mean (± SD), n = 4–5, read-out: Liver uptake.
Setting [3] is: iv, 1 ug, 225Ac-labeled, AR42J tumor-bearing mice, 24 h post-injection, ex vivo, mean (± SD), n = 4–5, read-out: Tumor uptake.
The mark [4] stands for this setting: iv, 1 ug, 225Ac-labeled, AR42J tumor-bearing mice, 24 h post-injection, ex vivo, mean, n = 4–5, read-out: Femur uptake.
Where [5] appears, read: iv, 1 ug, 225Ac-labeled, AR42J tumor-bearing mice, 24 h post-injection, ex vivo, mean, n = 4–5, read-out: Intestine uptake.
The mark [6] stands for this setting: iv, 1 ug, 225Ac-labeled, AR42J tumor-bearing mice, 24 h post-injection, ex vivo, mean, n = 4–5, read-out: Spleen uptake.
Setting [7] is: iv, 1 ug, 225Ac-labeled, AR42J tumor-bearing mice, 24 h post-injection, i.v. 1 μg (117–163 kBq), ex vivo gamma counting, mean, n = 4–5, read-out: Blood uptake.
Where [8] appears, read: iv, 1 ug, 225Ac-labeled, AR42J tumor-bearing mice, 4 days post-injection, ex vivo, mean, n = 4–5, read-out: Blood uptake.
Setting [9] is: iv, 1 ug, 225Ac-labeled, AR42J tumor-bearing mice, 4 days post-injection, ex vivo, mean, n = 4–5, read-out: Femur uptake.
Setting [10] is: iv, 1 ug, 225Ac-labeled, AR42J tumor-bearing mice, 4 days post-injection, ex vivo, mean, n = 4–5, read-out: Intestine uptake.
Setting [11] is: iv, 1 ug, 225Ac-labeled, AR42J tumor-bearing mice, 4 days post-injection, ex vivo, mean, n = 4–5, read-out: Kidney uptake.
[12] abbreviates: iv, 1 ug, 225Ac-labeled, AR42J tumor-bearing mice, 4 days post-injection, ex vivo, mean, n = 4–5, read-out: Liver uptake.
The mark [13] stands for this setting: iv, 1 ug, 225Ac-labeled, AR42J tumor-bearing mice, 4 days post-injection, ex vivo, mean, n = 4–5, read-out: Muscle uptake.
[14] abbreviates: iv, 1 ug, 225Ac-labeled, AR42J tumor-bearing mice, 4 days post-injection, ex vivo, mean, n = 4–5, read-out: Spleen uptake.
The mark [15] stands for this setting: 225Ac-labeled, AR42J tumor-bearing mice, 24 h post-injection, ex vivo, mean, n = 4–5, read-out: Heart uptake.
The mark [16] stands for this setting: 225Ac-labeled, AR42J tumor-bearing mice, 24 h post-injection, ex vivo, mean, n = 4–5, read-out: Lung uptake.
Setting [17] is: 225Ac-labeled, AR42J tumor-bearing mice, 24 h post-injection, ex vivo, mean, n = 4–5, read-out: Muscle uptake.
The mark [18] stands for this setting: 225Ac-labeled, AR42J tumor-bearing mice, 4 days post-injection, ex vivo, mean, n = 4–5, read-out: Heart uptake.
Where [19] appears, read: 225Ac-labeled, AR42J tumor-bearing mice, 4 days post-injection, ex vivo, mean, n = 4–5, read-out: Lung uptake.

Where two headings read alike, the source gives them in different places.

For `CSCC[C@H](NC(=O)CN1CCN(CC(=O)O)CCN(CC(=O)O)CCN(CC(=O)O)CC1)C(=O)N[C@H](C(=O)N[C@@H](CCCCNC(=O)CCCC(=O)N[C@H](Cc1ccccc1)C(=O)N[C@H]1CSSC[C@@H](C(=O)N[C@H](C(=O)O)[C@@H](C)O)NC(=O)[C@H]([C@@H](C)O)NC(=O)[C@H](CCCCN)NC(=O)[C@@H](Cc2c[nH]c3ccccc23)NC(=O)[C@H](Cc2ccc(O)cc2)NC1=O)C(=O)O)C(C)C` [^225Ac-DOTA-MVK(ε)-TATE, metal not drawn], the tissue to tissue ratio at 24 h was determined as 3.05 ± 0.37, the tissue to tissue ratio at 96 h came out at 5.72 ± 0.91 and the tissue uptake at 96 h turned out to be 2.41 ± 0.22 %ID/g. Besides, the tissue uptake at 24 h under setting [1] is 1.27 ± 0.25 %ID/g. Besides, the tissue uptake at 24 h under setting [2] was 0.61 ± 0.06 %ID/g. Besides, the tissue uptake at 24 h under setting [3] was 3.83 ± 0.51 %ID/g. Also, the tissue uptake at 24 h under setting [4] is 0.33 %ID/g. Moreover, under setting [5], the tissue uptake at 24 h was 0.11 %ID/g. In addition, the tissue uptake at 24 h under setting [6] was 0.32 %ID/g. Further, the tissue uptake at 24 h under setting [7] amounted to 0.03 %ID/g. Further, the tissue uptake at 96 h under setting [8] was found to be 0.03 %ID/g. Also, the tissue uptake at 96 h under setting [9] amounted to 0.32 %ID/g. Moreover, under setting [10], the tissue uptake at 96 h amounted to 0.07 %ID/g. For the same compound, under setting [11], the tissue uptake at 96 h came to 0.43 %ID/g. Under setting [12], the tissue uptake at 96 h amounted to 0.42 %ID/g. In addition, the tissue uptake at 96 h under setting [13] is 0.15 %ID/g. For the same compound, under setting [14], the tissue uptake at 96 h is 0.19 %ID/g. In addition, the tissue uptake at 24 h under setting [15] is 0.08 %ID/g. Further, the tissue uptake at 24 h under setting [16] is 0.14 %ID/g. The tissue uptake at 24 h under setting [17] worked out at 0.09 %ID/g. Further, under setting [18], the tissue uptake at 96 h worked out at 0.12 %ID/g. For the same compound, the tissue uptake at 96 h under setting [19] turned out to be 0.11 %ID/g.
With `C[C@@H](O)[C@H](NC(=O)[C@@H]1CSSC[C@H](NC(=O)[C@@H](Cc2ccccc2)NC(=O)CN2CCN(CC(=O)O)CCN(CC(=O)O)CCN(CC(=O)O)CC2)C(=O)N[C@@H](Cc2ccc(O)cc2)C(=O)N[C@H](Cc2c[nH]c3ccccc23)C(=O)N[C@@H](CCCCN)C(=O)N[C@@H]([C@@H](C)O)C(=O)N1)C(=O)O` [^225Ac-DOTA-TATE, metal not drawn, reference compound], the tissue uptake at 96 h came to 1.14 ± 0.37 %ID/g. Further, the tissue uptake at 24 h under setting [1] was found to be 4.19 ± 0.28 %ID/g. For the same compound, the tissue uptake at 24 h under setting [2] is 0.29 ± 0.02 %ID/g. The tissue uptake at 24 h under setting [3] is 3.4 ± 0.34 %ID/g. The tissue uptake at 24 h under setting [4] was 0.2 %ID/g. Besides, the tissue uptake at 24 h under setting [5] was 0.09 %ID/g. For the same compound, the tissue uptake at 24 h under setting [6] amounted to 0.16 %ID/g. The tissue uptake at 24 h under setting [7] amounted to 0.03 %ID/g. Also, the tissue uptake at 96 h under setting [8] came to 0.04 %ID/g. The tissue uptake at 96 h under setting [9] was determined as 0.41 %ID/g. The tissue uptake at 96 h under setting [10] amounted to 0.1 %ID/g. Also, the tissue uptake at 96 h under setting [11] was 1.02 %ID/g. The tissue uptake at 96 h under setting [12] was found to be 0.65 %ID/g. Also, the tissue uptake at 96 h under setting [13] came out at 0.16 %ID/g. In addition, the tissue uptake at 96 h under setting [14] stood at 0.27 %ID/g. In addition, the tissue uptake at 24 h under setting [15] turned out to be 0.06 %ID/g. Moreover, the tissue uptake at 24 h under setting [16] turned out to be 0.14 %ID/g. The tissue uptake at 24 h under setting [17] came out at 0.1 %ID/g. Also, the tissue uptake at 96 h under setting [18] is 0.14 %ID/g. For the same compound, under setting [19], the tissue uptake at 96 h turned out to be 0.16 %ID/g.
On to `C[C@@H](O)[C@H](NC(=O)[C@@H]1CSSC[C@H](NC(=O)[C@@H](Cc2ccccc2)NC(=O)CCCC(=O)Nc2cc(COC(=O)N(C)CCNC(=O)CN3CCN(CC(=O)O)CCN(CC(=O)O)CCN(CC(=O)O)CC3)ccc2O[C@@H]2O[C@H](CO)[C@H](O)[C@H](O)[C@H]2O)C(=O)N[C@@H](Cc2ccc(O)cc2)C(=O)N[C@H](Cc2c[nH]c3ccccc23)C(=O)N[C@@H](CCCCN)C(=O)N[C@@H]([C@@H](C)O)C(=O)N1)C(=O)O` [^225Ac-DOTA-β-Gal-TATE, metal not drawn], for which the tissue uptake at 24 h under setting [1] was found to be 0.89 ± 0.08 %ID/g; the tissue uptake at 24 h under setting [2] came out at 0.89 ± 0.49 %ID/g; the tissue uptake at 24 h under setting [3] came to 8.22 ± 1.84 %ID/g; the tissue uptake at 24 h under setting [4] came to 0.48 %ID/g; the tissue uptake at 24 h under setting [5] is 0.17 %ID/g; the tissue uptake at 24 h under setting [6] turned out to be 0.47 %ID/g. The tissue uptake at 24 h turned out to be 0.04 %ID/g under setting [7], 0.1 %ID/g under setting [15], 0.1 %ID/g under setting [16] and 0.1 %ID/g under setting [17]. Moreover, the tissue uptake at 96 h runs as follows: under setting [8], 0.03 %ID/g; under setting [9], 0.42 %ID/g; under setting [10], 0.09 %ID/g; under setting [11], 0.28 %ID/g; under setting [12], 0.5 %ID/g; under setting [13], 0.22 %ID/g. The tissue uptake at 96 h is, setting by setting: under setting [14], 0.22 %ID/g; (225Ac-labeled, AR42J tumor-bearing mice, 4 days post-injection, ex vivo, mean (± SD), n = 4–5, read-out: Tumor uptake) 2.74 %ID/g; under setting [18], 0.13 %ID/g; under setting [19], 0.11 %ID/g. The tissue to tissue ratio at 24 h (225Ac-labeled, AR42J xenografts, 24 h post-injection, ex vivo, mean ± SD, n = 4, read-out: Tumor-to-kidney (T/K) ratio) came to 9.12 ± 1.31.

Source of the values: article doi:10.1101/2025.09.11.675134, “Biodistribution-Driven Discovery Identifies a Glycosidase-Cleavable Linker to Reprogram Radiotheranostics” (bioRxiv, 2025).
